Patent publication US20200255543A1 (ROCKEFELLER UNIVERSITY, published 2020)

Columns and labels:
recombinant mouse MERTK [1] = biological target: T1, recombinant mouse MERTK (mouse, UniProt Q60805 23-496, limits assumed); assay: biolayer interferometry, M19 loaded on AMQ sensor at 1 ug/mL, msMer in solution at 0.0781 nM, local 1:1 fit
T1 construct: Analyte in solution in biolayer interferometry; also called msMer; murine MERTK
T1 sequence (looked up): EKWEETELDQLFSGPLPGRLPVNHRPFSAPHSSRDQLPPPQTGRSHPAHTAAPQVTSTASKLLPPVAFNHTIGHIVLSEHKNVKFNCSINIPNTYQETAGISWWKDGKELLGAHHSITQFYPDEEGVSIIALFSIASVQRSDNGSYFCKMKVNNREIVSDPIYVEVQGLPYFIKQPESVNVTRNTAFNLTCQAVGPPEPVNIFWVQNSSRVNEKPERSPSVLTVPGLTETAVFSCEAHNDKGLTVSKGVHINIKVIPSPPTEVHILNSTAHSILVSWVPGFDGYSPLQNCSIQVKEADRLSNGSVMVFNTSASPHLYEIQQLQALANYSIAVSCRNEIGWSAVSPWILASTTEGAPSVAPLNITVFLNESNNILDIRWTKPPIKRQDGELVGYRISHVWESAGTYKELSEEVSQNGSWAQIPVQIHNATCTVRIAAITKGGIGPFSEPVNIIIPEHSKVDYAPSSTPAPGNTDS
Description: (§1) FIG. 8: M19 binds to murine MERTK with high affinity. A diagram showing antibody binding kinetics for M19 (Mer-M19) against murine MERTK (msMer) using biolayer interferometry. Purified M19 was loaded on an AMQ sensor at a concentration of 1 microgram/mL to test binding against analytes in solution. All analytes were prepared at 5 nM with a 2-fold dilution series for a total of 7 concentrations. Kinetic fits were calculated using a 1:1 model, with Local fits for each concentration as well as an overall Global fit.
(§2) To characterize the binding affinity of M19 antibody against recombinant human and mouse MERTK, biomolecular interaction analysis was performed using biolayer interferometry (FIG. 7 and FIG. 8). Binding was observed between M19 and both mouse and human MERTK.

recombinant mouse MERTK [2] = biological target: T1, recombinant mouse MERTK; assay: biolayer interferometry, M19 loaded on AMQ sensor at 1 ug/mL, msMer in solution at 2.5 nM, local 1:1 fit
Description: as §1, §2

recombinant human MERTK [3] = biological target: T2, recombinant human MERTK (human, UniProt Q12866 21-505, limits assumed); assay: biolayer interferometry, M19 loaded on AMQ sensor at 1 ug/mL, hMer in solution at 0.0781 nM, local 1:1 fit
T2 construct: Analyte in solution in biolayer interferometry; also called hMer
T2 sequence: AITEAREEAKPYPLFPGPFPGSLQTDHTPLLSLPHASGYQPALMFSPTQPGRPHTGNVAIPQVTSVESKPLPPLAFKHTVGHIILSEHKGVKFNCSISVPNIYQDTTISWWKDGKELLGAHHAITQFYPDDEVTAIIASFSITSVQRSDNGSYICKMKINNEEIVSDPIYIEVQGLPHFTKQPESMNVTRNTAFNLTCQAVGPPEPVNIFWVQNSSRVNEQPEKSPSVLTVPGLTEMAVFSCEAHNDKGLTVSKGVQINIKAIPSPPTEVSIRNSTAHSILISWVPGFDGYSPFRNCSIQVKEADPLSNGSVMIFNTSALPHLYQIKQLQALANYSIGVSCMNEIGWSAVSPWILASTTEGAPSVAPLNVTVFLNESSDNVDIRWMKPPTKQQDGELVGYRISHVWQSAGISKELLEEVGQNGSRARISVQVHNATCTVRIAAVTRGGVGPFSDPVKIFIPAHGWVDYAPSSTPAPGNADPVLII
Description: (§3) FIG. 7: M19 binds to human MERTK with high affinity. A diagram showing antibody binding kinetics for M19 (Mer-M19) against human MERTK (hMer) using biolayer interferometry. Purified M19 was loaded on an AMQ sensor at a concentration of 1 microgram/mL to test binding against analytes in solution. All analytes were prepared at 5 nM with a 2-fold dilution series for a total of 7 concentrations. Kinetic fits were calculated using a 1:1 model, with Local fits for each concentration as well as an overall global fit.
as §2

recombinant mouse MERTK [4] = biological target: T1, recombinant mouse MERTK; assay: biolayer interferometry, M19 loaded on AMQ sensor at 1 ug/mL, msMer in solution at 5 to 0.0781 nM, global 1:1 fit
Description: as §1, §2

recombinant mouse MERTK [5] = biological target: T1, recombinant mouse MERTK; assay: biolayer interferometry, M19 loaded on AMQ sensor at 1 ug/mL, msMer in solution at 0.625 nM, local 1:1 fit
Description: as §1, §2

recombinant mouse MERTK [6] = biological target: T1, recombinant mouse MERTK; assay: biolayer interferometry, M19 loaded on AMQ sensor at 1 ug/mL, msMer in solution at 1.25 nM, local 1:1 fit
Description: as §1, §2

recombinant human MERTK [7] = biological target: T2, recombinant human MERTK; assay: biolayer interferometry, M19 loaded on AMQ sensor at 1 ug/mL, hMer in solution at 2.5 nM, local 1:1 fit
Description: as §3, §2

recombinant human MERTK [8] = biological target: T2, recombinant human MERTK; assay: biolayer interferometry, M19 loaded on AMQ sensor at 1 ug/mL, hMer in solution at 5 to 0.0781 nM, global 1:1 fit
Description: as §3, §2

recombinant human MERTK [9] = biological target: T2, recombinant human MERTK; assay: biolayer interferometry, M19 loaded on AMQ sensor at 1 ug/mL, hMer in solution at 0.3125 nM, local 1:1 fit
Description: as §3, §2

B1: monoclonal antibody M19 (antibody, V domains shown)
VH: EVQLEESGPDLKKPGETVKISCKASNYTFTDYSMHWVKQAPGKGLKWVGWINTDTGEPTYADDFKGRFAFSLETSASTAYLQINNLKNEDTATYFCARWFGAMDYWGQGTSVTVSS
VL: DIVITQSHKFMSTSVGDRVSITCKASQDVTNVVAWYQQKPGQSPKLLIYSASYRYTGVPDRFTGSGSGTDFTFTISSVQAEDLAVYYCQQYYRTPRTFGGGTKLEIKR
notes: Mouse hybridoma monoclonal antibody; Hybridoma supernatant was used in the ELISA screen, purified antibody in biolayer interferometry; also called Mer-M19
Binder B1 has a Kd (recombinant mouse MERTK [1]) of 0.0472 nM, a koff (recombinant mouse MERTK [1]) of 0.00108 s⁻¹ and a kon (recombinant mouse MERTK [1]) of 2.29e+07 M⁻¹ s⁻¹. The Kd (recombinant mouse MERTK [2]) was 0.341 nM, the koff (recombinant mouse MERTK [2]) was 0.00159 s⁻¹ and the kon (recombinant mouse MERTK [2]) was 4.66e+06 M⁻¹ s⁻¹. For the same binder, the Kd (recombinant human MERTK [3]) was 0.0765 nM, the koff (recombinant human MERTK [3]) was 0.000934 s⁻¹ and the kon (recombinant human MERTK [3]) was 1.22e+07 M⁻¹ s⁻¹. It also gave a koff (recombinant mouse MERTK [4]) of 0.00144 s⁻¹, a kon (recombinant mouse MERTK [4]) of 4.71e+06 M⁻¹ s⁻¹ and a Kd (recombinant mouse MERTK [5]) of 0.198 nM. The koff (recombinant mouse MERTK [5]) was 0.00137 s⁻¹, the kon (recombinant mouse MERTK [5]) was 6.92e+06 M⁻¹ s⁻¹ and the Kd (recombinant mouse MERTK [6]) was 0.282 nM. For the same binder, the koff (recombinant mouse MERTK [6]) was 0.00149 s⁻¹, the kon (recombinant mouse MERTK [6]) was 5.27e+06 M⁻¹ s⁻¹ and the Kd (recombinant human MERTK [7]) was 0.339 nM. It also gave a koff (recombinant human MERTK [7]) of 0.000899 s⁻¹, a kon (recombinant human MERTK [7]) of 2.65e+06 M⁻¹ s⁻¹ and a koff (recombinant human MERTK [8]) of 0.001 s⁻¹. The kon (recombinant human MERTK [8]) was 3.08e+06 M⁻¹ s⁻¹, the Kd (recombinant human MERTK [9]) was 0.128 nM and the koff (recombinant human MERTK [9]) was 0.000968 s⁻¹. For the same binder, the kon (recombinant human MERTK [9]) was 7.57e+06 M⁻¹ s⁻¹.
